This passage reports Kd and IC50 results from patent US20040110688A1 (SAINT LOUIS UNIVERSITY, published 2004).

The chains are these.
T1: factor VIIIa (human, UniProt P00451 20-2351)
T1 sequence (looked up): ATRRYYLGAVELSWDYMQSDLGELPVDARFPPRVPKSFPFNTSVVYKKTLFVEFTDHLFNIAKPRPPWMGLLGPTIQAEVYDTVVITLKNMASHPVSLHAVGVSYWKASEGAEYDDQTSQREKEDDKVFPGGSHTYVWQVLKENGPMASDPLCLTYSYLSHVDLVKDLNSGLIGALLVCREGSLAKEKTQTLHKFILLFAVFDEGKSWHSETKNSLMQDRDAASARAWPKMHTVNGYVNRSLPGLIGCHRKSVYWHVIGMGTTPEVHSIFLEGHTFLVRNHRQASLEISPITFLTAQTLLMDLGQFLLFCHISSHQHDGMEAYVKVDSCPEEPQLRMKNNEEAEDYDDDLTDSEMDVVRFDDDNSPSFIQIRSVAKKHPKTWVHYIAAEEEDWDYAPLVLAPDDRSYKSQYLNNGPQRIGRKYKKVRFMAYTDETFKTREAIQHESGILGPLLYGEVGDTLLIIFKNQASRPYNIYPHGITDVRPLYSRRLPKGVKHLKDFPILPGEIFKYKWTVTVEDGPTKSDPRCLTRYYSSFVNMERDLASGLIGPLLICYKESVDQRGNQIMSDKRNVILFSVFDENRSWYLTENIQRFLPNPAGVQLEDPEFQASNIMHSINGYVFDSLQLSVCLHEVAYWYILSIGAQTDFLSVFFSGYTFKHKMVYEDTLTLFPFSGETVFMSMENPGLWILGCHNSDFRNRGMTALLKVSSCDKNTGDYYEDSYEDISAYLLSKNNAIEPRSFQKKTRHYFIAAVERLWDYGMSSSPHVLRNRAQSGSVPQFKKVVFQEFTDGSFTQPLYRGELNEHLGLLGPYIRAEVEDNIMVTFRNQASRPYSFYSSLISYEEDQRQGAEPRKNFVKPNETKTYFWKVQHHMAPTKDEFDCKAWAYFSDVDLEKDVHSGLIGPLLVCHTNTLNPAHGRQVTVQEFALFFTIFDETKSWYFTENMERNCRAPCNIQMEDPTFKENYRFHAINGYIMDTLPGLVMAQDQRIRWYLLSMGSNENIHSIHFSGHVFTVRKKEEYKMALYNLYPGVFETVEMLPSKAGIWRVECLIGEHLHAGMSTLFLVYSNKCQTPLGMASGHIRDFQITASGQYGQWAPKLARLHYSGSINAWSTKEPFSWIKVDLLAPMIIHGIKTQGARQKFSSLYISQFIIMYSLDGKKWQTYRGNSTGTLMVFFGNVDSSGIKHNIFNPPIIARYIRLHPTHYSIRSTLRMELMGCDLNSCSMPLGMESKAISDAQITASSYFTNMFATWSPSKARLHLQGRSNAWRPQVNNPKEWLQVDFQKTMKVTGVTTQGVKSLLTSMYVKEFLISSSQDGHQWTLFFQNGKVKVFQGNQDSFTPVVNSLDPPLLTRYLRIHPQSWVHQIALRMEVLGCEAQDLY

One experiment concerns the target T1, factor VIIIa. Briefly: Kd from the peptide competition assay (factor X activation by IXa with VIIIa and phospholipid).
The term Kd denotes a measure of binding affinity in units of concentration. Lower therefore signals higher affinity. On to DRAT [P-4488 SEQ ID NO: 2 (DRAT)], for which the affinity, expressed as Kd, was 44.9 µM. That is a double-digit micromolar value. LVDRAT [P-4351 SEQ ID NO: 6 (LVDRAT)] had a Kd of 0.35 µM. For the molecule LVYRAT [P-4352 SEQ ID NO: 7 (LVYRAT)], binding was put at a Kd of 6.6 µM.

The molecule LVDQAT [P-4353 SEQ ID NO: 8 (LVDQAT)] displayed a Kd of 4.7 µM. Still for that read-out and setting: next, TKVSRYVN [P-4354 (TKVSRYVN)]: 1 µM.

The molecule DGDQCESNPCLNGGSCKDDINSYECWCPFGFEGKNCELD (other, UniProt P00740 93-131, looked up, domain: EGF1 Domain) [EGF1 Domain] showed a Kd of 6 µM.

A further experiment addresses T1, factor VIIIa. Kind of experiment: peptide competition assay: inhibition of factor X activation by IXa with VIIIa and phospholipid. As for the experimental part: Each reaction was incubated for either 30, 60, 90, or 120 seconds and the reaction was stopped by adding 1.5 μL of 0.5 M EDTA and placed on ice. Forty μL of each reaction was added to 100 μL of TBS/BSA in a 96 well microtiter plate and S-2222 (Bz-Ile-Glu(γ-OR)-Gly-Arg-p-nitroanilide) was added to a final concentration of 100 μM.
As a reminder, the IC50 is the concentration that gives 50% inhibition. Take DRAT [P-4488 SEQ ID NO: 2 (DRAT)]: the IC50 is 89.8 µM. LVDRAT [P-4351 SEQ ID NO: 6 (LVDRAT)] showed an IC50 of 0.7 µM. Molecule LVYRAT [P-4352 SEQ ID NO: 7 (LVYRAT)] returned an IC50 of 13.2 µM.

As for LVDQAT [P-4353 SEQ ID NO: 8 (LVDQAT)], the IC50 worked out at 9.3 µM. The IC50 values of the last two molecules are within 1.5-fold of each other. DGDQCESNPCLNGGSCKDDINSYECWCPFGFEGKNCELD (other, UniProt P00740 93-131, looked up, domain: EGF1 Domain) [EGF1 Domain]: the IC50 worked out at 12 µM. The IC50 values of the last two molecules are within 1.5-fold of each other.
